Measured values: the DeepSol protein solubility set

Test: soluble on expression in E. coli; label from the status in PepcDB or PDB records

Sequence	soluble on expression in E. coli
MGSDKIHHHHHHMEVNRLSALTPPMGWNSWDCYGASVTEEEVLGNAEYMANHLKKYGWEYIVVDIQWYEPTANSSAYNPFAPLCMDEYGRLLPATNRFPSAKNGAGFKPLSDAIHDLGLKFGIHIMRGIPRQAVYENSPVLGSTKTAREIAHTNSICPWNTDMYGVDPTKEGAQSYYNSLFELYAQWGVDFVKVDDIAASRLYDTHLEEIKMIQRAIQACGRPMVLSLSPGPAPIKYAHHFKTNANMWRITDDFWDDWSLLYQMFERCEVWEKHIGTGHWPDCGMLPLGHIGIRSVDGPGGDRWTRFTKDEQLTMMNLWAICHSPLMFGGELRDNDEWTLSLLTNEGILSINQKSVLNRFVYREEDKVAWAANGRNGEAYVALFNLHDQQKTLQFRLDMVGIMETVQLFNVWDRSFLQSLAPSESFQIELKPHQSMMLKLSPDR	not soluble
MGSDKIHHHHHHMFDPETLRTFISVAETGSFSKAAERLCKTTATISYRIKLLEENTGVGLFFRTTRSVSLTAAGSHLLSQAKDWLAWLDSMPDELRQVNDGVERQVNIVVNNLLYSPQAVASLLSWLNARYPFTQFHFSRQIYMGVWDSLLYEGFSLAIGVTGTEPLANTFMLDPLGSVQWRFVMSADHPLAHVSGPLTEAQLRRFPAINIEDSARTLTKRVAWRLPGQKEIIVPDMETKIAAHLAGVGIGFVPQPLCQTLIDKNELVSCTIPTMRPPSPLSLAWHKFGGGKAVEDIVKLFTQRQPEIAGFLSIFNTVRC	not soluble
MGSDKIHHHHHHMFMPEAVNWNRPIKVGVSSCLLGEKVRYDGGHKHDHYITDVLGKFFTFVPVCPEVGCGMPVPREAMRLEGDPEHPRLVTNKTRIDKTEQMRAFCKQKVTELADEELCGFIFKKDSPSSGLFRVKVHNEGMPTRSGSGLFAAAVVKHFPLLPAEEEGRLNDAAIRENFIERIFCYRRWKDFLLDSPDLGHLVTFHARHKLLILAHSTSIYREMGSLVAHGKGMSWPELAQSYEALFMKALALHATVKKNTNVLTHIMGYFKRDLSPAEKEELLGVIKEYHDRLVPLIVPLTLLKHYVGKYGQSYLQQQYYLSPHPAELMLRNHV	not soluble
MGSDKIHHHHHHMFRTNPLKIIMLGPSLLQQGGISGYEKLFLEYAPSEIHICHIITHEEGTIAFKIMVFLKAIWKFIWMLISEEIDIVQLEISQRGSVFRQSIMILLAWVFHKPIILHAHGSQFHIFYAGLANWIQKLLSWIFCKCQRLIVLSESWKSFYIDTLGLKSEQVVVFYNPVKVPTEVPSRSFSTKLNLLFLGRIGQRKGAFDLIKAFSSLPTEYQTRSIMVMAGDGDIEKARDLVTTLNLQDYIQLPGWIGSDERDILLSKADIFVLPSYNEGLPLAMLEAMAWELPVIVTPVGGIPEIVTQSENGLIVNPGNVEQLSNAIKSLIENEALRLSLGAKARTSVFPLDIKKHWVDFIDLYNLVLNTMEEHSKG	not soluble
MGSDKIHHHHHHMGCGVTVANASVYALPVRGNIVGALEAVTTHRDDTLLDIGRFYDLGYNQVTAANPGVNPWLPGQASKVVIPAEYILPPKPWTGIIVDIPARRIYYFPVNDRVVYTYPVGVFLPGWKEALTDTRIIAKFKMPAWNVPKNIHAWFEKKFHMDIPWYWPPGPENPMGELAMETGLSGIFIHGTYHPWGVGMRASQGCFQMFPENVAQLFPMVPVGTPVRIIDQPNLVGVRDGQVYLQSYKPMHAYHKKGIPELQRAVVTIKSFMERNRIEERIDWGMVRRIVTEHNTVALPIGVGAPSYATLSAALPATPYAYAPYGPSANGAAVPPPLPLASAADQEHLHVQVTFPDQKP	not soluble
MGSDKIHHHHHHMGEEIAISLKNVSKCFKRYSRPVDRLKEVLLPGKSRTDEFWALRDINIEIPKGQTVGIVGRNGSGKSTLLQIIVGTLTPSSGDVRVVGRVSALLELGSGFNPEFTGRQNVFFNGQLLGLSQKQIEDRFDDIVAFADIGDFIEQPVKTYSSGMYVRLAFSVAVNVDPEILIVDEALAVGDVVFQHRCMRRMRAMMDSGVTTLFVSHDSGAIKTLCNSAVMIHDGKIHTTGLPNTVIIEYLKLVTELELGLAQDITVNSQQQVNPVVDNAIQASDSPNFDIESPSSNFSKATRRGSGKARIESVKILNQLGHYAGESPIFAFNEEVTLIVNLKVYYTIKSCIVGFHVCDKNGNEVIGSNTLEENIKIDKLESGEEIEIKFKFNLPLRPSSYSLTVAGAESYESLSFDWIDNIMVFQILPPDTGKLIHALVHQPMVVKVNKKVLPTVVTPA	not soluble
MGSDKIHHHHHHMGFWHSMSWKTEGIRVTAPVQWRQYDGMVSVLWEAESQAGASGYYLADDPRIMFFFNDVSSSVRISNQDNDLARNSRPMARAVYVPAGVPLWTGSRKTHSFSHLNLHLHKDRVLRFLAPSVGNSAAQTALRCPVELQNVAAIDALAKLLADEIKSPTKHAVYAESLIGSIIAGLLDIPTEREERAGGRLTQAQINKLVSHIDALGDYRMSVADMAAVVGLSESWFASVFKQTMGITPLQWQLAKRVELTKKLLGESDLPVASIAAQLGFADQAHLTKVFRQIVGETPAAWRRMRQFRQS	not soluble
MGSDKIHHHHHHMGIDIKHEESSLVGLLTYIGRLKDEQFDYVIDLHNVIRSKIIRFYLRFFGVKGFSLKKPRLQLRQLTAKPPKKPTRLPSVIERYAQVFHKAGLEIHPPYPILLNDSGHISTELPIVEIGSGHHLIGIAPFAGHEAKTYPPEKMHEVVRTLAERDDVQIFLFGGKGKEKNILEQWADESPRIVSVAGLLSLPEELSLIHALRCMVSMDSANMHFASLVGTRVISIWCATHPAAGFLGYGQRIEDCIGADLDCRPCSVFGNKPCFRKDYACRTQIEPQLIINKIVSTLTDLNSDETEN	not soluble
MGSDKIHHHHHHMGKFLKKHYIMAPGPTPVPNDILTEGAKETIHHRTPQFVSIMEETLESAKYIFQTKHNVYAFASTGTGAMEAAVANLVSPGDKVIVVVAGKFGERWRELCQAYGADIVEIALEWGDAVTPEQIEEALNKNPDAKVVFTTYSETSTGTVIDLEGIARVTKEKDVVLVTDAVSALGAEPLKMDEWGVDLVVTGSQKGLMLPPGLALISLNDKAWGLVEKSRSPRYYFDLRAYRKSYPDNPYTPAVNMIYMLRKALQMIKEEGIENVWERHRILGDATRAAVKALGLELLSKRPGNVVTAVKVPEGIDGKQIPKIMRDKYGVTIAGGQAKLKGKIFRIAHLGYMSPFDTITAISALELTLKELGYEFELGVGVKAAEAVFAKEFIGE	not soluble
MGSDKIHHHHHHMGKKNYGKSVKTRLLNLMNETGYKYMYLLARYFNERLLYRVSVSQYKDNFLLKGGSLLYAMNGLEARPTVDVDFMADRISRDRDFLARVFQEILGIVCDEDGVSFDAGSIKIEPITVEKKYPGTRFYFTAHMDTIAYNMSVDIGFGDVVIPHPTTIDFPLLLPDIPSVNIQAYSLETVIAEKFHTMIDRDVLNSRMKDFFDCYQLLTKRNLNDDALYDAIEATFDNRGLAYNPDLQLFTDSFATDRARISRWKAFLRKIQWKEALDFDTVMKAIRDRLQPMAEKYWIKLSK	not soluble
MGSDKIHHHHHHMGKSFYRFRSTNNLLDGYSELEKQTIYFARPEQLNDPMEGYRDIYWRGDLIAWKNLFAHYVFCLERISSLLLISGEDNKIDADHIPVFGSTDDLPTDSYKNLFRKIKARFLENKYVSALILAISKRSTPIRREELAFYYDCMHIPALKLIFDVYIEENLSQEGNRIDDKAFAGISGVVSNDFVGLLEKSITDGEADQVIVNELFKAKSHIKQQSNLIHKHNGTISSSKPNKNLLMIDFPSLYLNRLEEITFPKWYTSCFMSECKNSSVWGHYGNNHTGMCLIFDSENINDRSYIKLNGITGWGSSGPIYGDKAMEFHPIDYKKGFGEIDFFTSIGSLPIPVLNTMWYMDEAGNTSVCANKMNVDEDAWRSNYWSNFIRGLTVKSKDWEYENEYRLILHSSITDLSEKDRRTLTYDFSSLKGIIFGINTKEEDKLKTIKIIEDKCNKHSRSDFKFYQAYYCADENCIKSVEMSLVKFSGNV	not soluble
MGSDKIHHHHHHMGKVADTLKPGDRVLLSFEDESEFLVDLEKDKKLHTHLGIIDLNEVFEKGPGEIIRTSAGKKGYILIPSLIDEIMNMKRRTQIVYPKDSSFIAMMLDVKEGDRIIDTGVGSGAMCAVLARAVGSSGKVFAYEKREEFAKLAESNLTKWGLIERVTIKVRDISEGFDEKDVDALFLDVPDPWNYIDKCWEALKGGGRFATVCPTTNQVQETLKKLQELPFIRIEVWESLFRPYKPVPERLRPVDRMVAHTAYMIFATKVCRREETE	not soluble
MGSDKIHHHHHHMGKVNYAAIDIGSNAVRLLIKSIDREAVQEKKIKKVMMLRVPLRLGFDVFSIGELSEKKADKLRRLMKAFRQLMKIYDVDDYRACATSAMRDARNGRTIIKKIEKDTGIRIEIIDGQEEARMIYNNHIECMEDRLGNYMYVDVGGGSTEINLLTNGELVWSVSYNIGTVRMLSNAVKEGTWQQMEEELMKVTEGVAAINIIGSGGNINKLFRLADKKDKKLQRLPVSSLQTVYDVLKPLTPEERVEAFSLKQDRADVIVPAAEIFLKIAEVVHAEYIYVPVIGLSDGIIDNLYAKSLEKEMKVE	not soluble
MGSDKIHHHHHHMGQGTDSMSKRGRVYIIGAGPGDPGLMTVKGTKCLAEADVVIYDHLINPGILHHARETARLVYAGKEGGKHTLSQEEINARLVSEAQQGHVVARLKGGDPFIFGRGGEEAEVLAREGIPFEIVPGVTSAIAVASYAGIPLTHRRHTATLAFVTGHEDPLKGQSEIDWKALAGIGTLVFLMGVRNLSRIAAGLIAQGKKPETPAALIRWGTTANQETLVGTLENIADLAEAAGFAPPAILVVGGVVGLRKELNWFETRPLFGKGIVITRPESQAESLAALLEDAGARVISFPTIQIVAPESWEGLDSAIRRLEDYAWLIFTSANGVRFFLERLYVTGKDVRDLKGIRLCTIGPATAAALENRGLRVDLVPETYLSEGVVAAFERVAISGQRILLPRAEKARDVIPEGLTRQGAVVDVVSAYRTVNSGRDRSELVELIAQRRVDVLTFTSPSTVTNFLEIMGPDFLPLPAGIRVACIGPVTAAAAEKAGLPVDILQEIYTIPGLVESLKVFLAKDKPH	not soluble
MGSDKIHHHHHHMGQRIPVTLGNIAPLSLRPFQPGRIALVCEGGGQRGIFTAGVLDEFMRAQFNPFDLYLGTSAGAQNLSAFICNQPGYARKVIMRYTTKREFFDPLRFVRGGNLIDLDWLVEATASQMPLQMDTAARLFDSGKSFYMCACRQDDYAPNYFLPTKQNWLDVIRASSAIPGFYRSGVSLEGINYLDGGISDAIPVKEAARQGAKTLVVIRTVPSQMYYTPQWFKRMERWLGDSSLQPLVNLVQHHETSYRDIQQFIEKPPGKLRISEIYPPKPLHSIALGSRIPALREDYKLGRLCGRYFLATVGKLLTEKAPLTRHLVPVVTPESIVIPPAPVANDTLVAEVSDAPQANDPTFNNEDLA	not soluble
MGSDKIHHHHHHMGYAMRLALIDGEHYPDVNRWALEKLKVDCAVFVGGMEKIGSIRDVERTLSIKLYYDEDIFKALERAIEENEIREVIDLSDEPVLTPEIRFRIASFLLKRGITYIGADFEFKPKEWIKIDVPSINIIGTGKRIGKTAIGGFVGRTLKEEYKVVIVTMGRGGPESPEVIRGDLMEITPEFLVEVSEKGRHAASDHFEDALTAGVATVGCRRCGGGLAGFTFLDVLQKGIEVAKSLNPEIIVFEGSGASFANVLSEGFITVVSALQGKEIKMYLYPLRISLGDLIVVTMADEVKDPGKISSLIKEINPDADIHLTRFSPRLIGNVEGKAVVVTTSTNSAKRVTKELEDRGIDVVGFSGNLANRVKLREELKKVSYDTLIVELKAGAVDVAIKSALRSGKRIVFLDYEPKNIDDKDLRESVKELARRIVNDKGHRKGR	not soluble
MGSDKIHHHHHHMHDFLQFWLNEFSRSENPQHVNSVLTRAAATLGYEYAAYGMRRPFPISNPQILMVSNYPDRWQERYIEARFANVDSAVKAALGSDRPVTWSASTNASKSAFWAEALSFGIAHGWSSASRGADGTIGVLSLSRRQDAIDTAEKFRNESIVHWLANVAHASMAPFLPAADEFDPDLTRRETDVLKWTADGKTAYEIALILSISESTVNFHVKNIVSKLGSTNKIQAVAKAALMGML	not soluble
